Assay results reported in PMC11813165.
Read-outs that look alike come from different tables or passages of the source.

How the values were obtained:
[1] = molecular target: NiV (Bangladesh strain) L (full-length, with C-terminal triple strep tag) (Nipah virus (Bangladesh strain)) (UniProt Q997F0); assay: mass photometry
[2] = molecular target: NiV (Bangladesh strain) L (full-length, with C-terminal triple strep tag) (Nipah virus (Bangladesh strain)) (UniProt Q997F0); assay: mass photometry; remark: listed apart in the source

Substance: NiV (Bangladesh strain) P (full-length, with N-terminal polyhistidine tag) (from UniProt Q4VCQ1 1-709) (natural protein)
- stoichiometry N [1]: 4
- stoichiometry N [2]: 3
